# From article PMC2775898 (The EMBO Journal, 2009)
# Where a chain is given by its changes, count along the chain named. Numbers in names are those of the source. Where no end group is shown, it is not given here. The star is where a group is joined. Biotin = O=C1N[C@H]2[C@H](CS[C@H]2CCCCC(=O)*)N1
# T1: Tiam1 PHCCEx domain (PH-CC-Ex region, residues 429-702) (mouse, UniProt Q60610 429-702)
# T1 sequence (looked up): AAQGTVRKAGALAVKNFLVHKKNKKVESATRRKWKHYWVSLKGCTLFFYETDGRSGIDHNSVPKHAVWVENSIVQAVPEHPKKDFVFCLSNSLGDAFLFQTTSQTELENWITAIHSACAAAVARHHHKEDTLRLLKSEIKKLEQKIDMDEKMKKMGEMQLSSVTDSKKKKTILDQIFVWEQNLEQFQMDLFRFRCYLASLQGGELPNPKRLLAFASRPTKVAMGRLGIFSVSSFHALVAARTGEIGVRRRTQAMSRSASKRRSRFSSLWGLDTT
# T2: Tiam2 PHCCEx domain (PH-CC-Ex region, residues 500-757) (mouse, UniProt Q6ZPF3 500-757)
# T2 sequence (looked up): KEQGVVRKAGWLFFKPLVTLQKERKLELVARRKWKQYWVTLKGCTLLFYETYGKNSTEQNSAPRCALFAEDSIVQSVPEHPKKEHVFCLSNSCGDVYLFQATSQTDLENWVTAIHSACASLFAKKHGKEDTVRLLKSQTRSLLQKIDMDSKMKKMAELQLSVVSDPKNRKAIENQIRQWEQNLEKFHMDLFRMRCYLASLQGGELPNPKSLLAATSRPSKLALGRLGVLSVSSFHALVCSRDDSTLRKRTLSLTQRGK
# T3: Tiam2 PHCCEx domain, alanine mutant Arg716 (R716A) (mouse, UniProt Q6ZPF3 500-757, R716A)
# T3 sequence (looked up): T2 sequence (looked up) with R217A
# T4: Tiam2 PHCCEx domain, alanine mutant Arg632 (mouse, UniProt Q6ZPF3 500-757, alanine mutant Arg632)
# T4 sequence (looked up): T2 sequence (looked up) with R133A
# T5: Tiam2 PHCCEx domain, alanine mutant Lys624 (mouse, UniProt Q6ZPF3 500-757, alanine mutant Lys624)
# T5 sequence (looked up): T2 sequence (looked up) with K125A
# T6: Tiam2 PHCCEx domain, alanine mutant Lys650 (mouse, UniProt Q6ZPF3 500-757, alanine mutant Lys650)
# T6 sequence (looked up): T2 sequence (looked up) with K151A
# T7: Tiam2 PHCCEx domain, alanine mutant Arg691 (mouse, UniProt Q6ZPF3 500-757, alanine mutant Arg691)
# T7 sequence (looked up): T2 sequence (looked up) with R192A
# T8: Tiam2 PHCCEx domain, alanine mutant Lys653 (mouse, UniProt Q6ZPF3 500-757, alanine mutant Lys653)
# T8 sequence (looked up): T2 sequence (looked up) with K154A
# T9: Tiam2 PHCCEx domain, alanine mutant Arg693 (R693A) (mouse, UniProt Q6ZPF3 500-757, R693A)
# T9 sequence (looked up): T2 sequence (looked up) with R194A
# T10: Tiam2 PHCCEx domain, alanine mutant Lys627 (mouse, UniProt Q6ZPF3 500-757, alanine mutant Lys627)
# T10 sequence (looked up): T2 sequence (looked up) with K128A
# B1: NMDAR loop I peptide (residues 591-610) (peptide)
# peptide: not shown
# modifications: biotin on the N-terminus
# B2: HA-tagged full-length Tiam1 with a double mutation (R622A and R645A) (natural protein, UniProt Q60610 1-1591, looked up)
# chain: MGNAESQNVDHEFYGEKHASLGRKHTSRSLRLSHKTRRTRHASSGKAIHRNSEVSTRSSSTPSIPQSLAENGLEPFSQEGALDDFGDPIWVDRVDMGLRPVSYTDSSVTPSVDGSIVLTAASVQSMPDSEESRLYGDDATYLAEGGRRQCPYTSNGPTFMETASFKKKRSKSADIWREDSLEFSLSDLSQEHLTSNEEILGSAEEKDCEEARGMETEASPRQLSTCQRANSLGDLYAQKNSGVKANGGPRNRFSSYCRNLVSDIPDLAKHKMPPAAAEETPPYSNYNTLPCRKSHCLSEGATNPQISLSKSMQGRRAKTTQDVNTGEGSEFADSGIEGATTDTDLLSRRSNATNSSYSPPTGRAFVGSDSGSSSTGDRARQGVYENFRRELEMSTTNSESLEEAGSAHSDEQSSGTLSSPGQSDILLTAAQGTVRKAGALAVKNFLVHKKNKKVESATRRKWKHYWVSLKGCTLFFYETDGRSGIDHNSVPKHAVWVENSIVQAVPEHPKKDFVFCLSNSLGDAFLFQTTSQTELENWITAIHSACAAAVARHHHKEDTLRLLKSEIKKLEQKIDMDEKMKKMGEMQLSSVTDSKKKKTILDQIFVWEQNLEQFQMDLFRFACYLASLQGGELPNPKRLLAFASAPTKVAMGRLGIFSVSSFHALVAARTGEIGVRRRTQAMSRSASKRRSRFSSLWGLDTTSKKKQGRPTINQVFGEGTDAVKRSLEGIFDDTVPDGKREKEVVLPSVHQHNPDCDIWVHEYFTPSWFCLPNNQPALTVVRPGDTARDTLELICKTHQLDHSAHYLRLKFLMENRVQFYIPQPEEDIYELLYKEIEICPKVTQNIHIEKSDAAADNYGFLLSSVDEDGIRRLYVNSVKETGLASKKGLKAGDEILEINNRAAGTLNSSMLKDFLSQPSLGLLVRTYPEPEGGVELLENPPHRVDGPVDLGESPLAFLTSNPGHSLSSEQGSSAETAPEEGEGPDLESSDETDHSSKSTEQVAAFCRSLHEMSPSDSSPSPQDATSPQLATTRQLSDADKLRKVICELLETERTYVKDLNCLMERYLKPLQKETFLTQDELDVLFGNLTEMVEFQVEFLKTLEDGVRLVPDLEKLEKVDQFKKVLFSLGGSFLYYADRFKLYSAFCASHTKVPKVLVKAKTDTAFKAFLDAQNPRQQHSSTLESYLIKPIQRVLKYPLLLRELFALTDAESEEHYHLDVAIKTMNKVASHINEMQKIHEEFGAVFDQLIAEQTGEKKEVADLSMGDLLLHTSVIWLNPPASLGKWKKEPELAAFVFKTAVVLVYKDGSKQKKKLVGSHRLSIYEEWDPFRFRHMIPTEALQVRALPSADAEANAVCEIVHVKSESEGRPERVFHLCCSSPESRKDFLKSVHSILRDKHRRQLLKTESLPSAQQYVPFGGKRLCALKGARPAMSRAVSAPSKSLGRRRRRLARNRFTIDSDAISASSPEKEPQQPAGGGDTDRWVEEQFDLAQYEEQDDIKETDILSDDDEFCESLKGASVDRDLQEQLQAASISQRARGRRTLDSHASRMTQLKKQAALSGINGGLESASEEVIWVRREDFAPSRKLNTEI
# Tests used:
# [1] = molecular target: T1, Tiam1 PHCCEx domain (PH-CC-Ex region, …); test: SPR
# [2] = molecular target: T2, Tiam2 PHCCEx domain (PH-CC-Ex region, …); test: SPR
# [3] = molecular target: T3, Tiam2 PHCCEx domain, alanine mutant …; test: SPR
# [4] = molecular target: T4, Tiam2 PHCCEx domain, alanine mutant …; test: SPR
# [5] = molecular target: T5, Tiam2 PHCCEx domain, alanine mutant …; test: SPR
# [6] = molecular target: T6, Tiam2 PHCCEx domain, alanine mutant …; test: SPR
# [7] = molecular target: T7, Tiam2 PHCCEx domain, alanine mutant …; test: SPR
# [8] = molecular target: T8, Tiam2 PHCCEx domain, alanine mutant …; test: SPR
# [9] = molecular target: T9, Tiam2 PHCCEx domain, alanine mutant …; test: SPR
# [10] = molecular target: T10, Tiam2 PHCCEx domain, alanine mutant …; test: SPR
# [11] = molecular target: GFP-tagged full-length Par3 (UniProt Q9Z340 1-1337); test: co-IP
# GFP-tagged full-length Par3, sequence (Q9Z340 whole entry): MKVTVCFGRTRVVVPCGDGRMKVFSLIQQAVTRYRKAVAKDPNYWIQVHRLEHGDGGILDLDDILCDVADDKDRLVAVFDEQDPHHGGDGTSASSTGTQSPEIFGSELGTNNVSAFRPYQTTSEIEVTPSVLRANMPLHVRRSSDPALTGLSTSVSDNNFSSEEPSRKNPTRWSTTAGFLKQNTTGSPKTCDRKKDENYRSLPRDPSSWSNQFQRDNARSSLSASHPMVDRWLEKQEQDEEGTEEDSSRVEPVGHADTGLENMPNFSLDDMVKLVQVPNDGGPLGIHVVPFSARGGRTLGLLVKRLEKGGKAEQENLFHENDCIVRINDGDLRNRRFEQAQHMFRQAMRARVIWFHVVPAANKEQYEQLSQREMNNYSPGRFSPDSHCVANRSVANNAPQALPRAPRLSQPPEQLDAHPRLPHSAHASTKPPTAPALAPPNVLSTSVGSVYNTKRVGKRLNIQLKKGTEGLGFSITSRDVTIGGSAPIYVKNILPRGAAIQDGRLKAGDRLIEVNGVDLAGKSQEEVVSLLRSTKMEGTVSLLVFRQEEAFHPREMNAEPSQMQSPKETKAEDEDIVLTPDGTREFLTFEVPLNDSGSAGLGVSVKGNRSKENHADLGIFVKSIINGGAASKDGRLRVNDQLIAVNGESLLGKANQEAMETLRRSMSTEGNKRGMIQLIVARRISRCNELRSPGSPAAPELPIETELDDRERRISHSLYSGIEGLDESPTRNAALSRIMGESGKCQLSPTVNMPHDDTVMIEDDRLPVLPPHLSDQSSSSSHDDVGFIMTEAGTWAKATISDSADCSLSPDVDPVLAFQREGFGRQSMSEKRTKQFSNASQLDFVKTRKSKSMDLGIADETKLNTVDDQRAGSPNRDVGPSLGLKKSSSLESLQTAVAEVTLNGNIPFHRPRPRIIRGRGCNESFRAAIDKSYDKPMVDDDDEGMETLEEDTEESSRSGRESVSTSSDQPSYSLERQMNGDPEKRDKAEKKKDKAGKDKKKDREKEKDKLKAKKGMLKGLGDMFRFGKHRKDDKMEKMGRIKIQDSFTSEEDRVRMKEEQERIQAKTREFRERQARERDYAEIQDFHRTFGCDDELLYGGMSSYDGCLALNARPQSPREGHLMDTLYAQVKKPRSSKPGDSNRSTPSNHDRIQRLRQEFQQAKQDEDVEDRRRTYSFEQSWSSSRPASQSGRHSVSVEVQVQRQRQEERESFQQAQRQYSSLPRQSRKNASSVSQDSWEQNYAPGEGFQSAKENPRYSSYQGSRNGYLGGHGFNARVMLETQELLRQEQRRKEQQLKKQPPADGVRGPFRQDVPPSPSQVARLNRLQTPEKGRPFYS
binder,measurement,setting,value
B1,binding result,[1],binds
"Biotin-SQEMVHLVNKEPSETPDQCMTADE (peptide, UniProt P15379-2 327-350, looked up) [CD44 acidic peptide comprising 24 residues (327-350)]",Kd,[2],920 nM
same,binding result,[1],binds
same,binding result,[3],binds
same,binding result,[4],binds
same,binding result,[5],binds
same,binding result,[6],binds
same,binding result,[7],binds
same,binding result,[8],binds
same,binding result,[9],binds
same,binding result,[10],binds
"KPMVDDDDEGMETLEEDTEESSRSGRESVS (peptide, UniProt Q99NH2 931-960, looked up, biotin on the N-terminus) [Par3 acidic cluster peptide (mouse residues 931-960)]",Kd,[2],380 nM
B2,Par3 binding relative to wild-type Tiam1,[11],~65%
